We go through seven molecules from publication PMC3585155, “CELF Family RNA–Binding Protein UNC-75 Regulates Two Sets of Mutually Exclusive Exons of the unc-32 Gene in Neuron-Specific Manners in Caenorhabditis elegans”.

Among the targets are UNC-75(L431F) (Caenorhabditis elegans, UniProt G5EE68 1-514, L431F); UNC-75 (Caenorhabditis elegans, UniProt G5EE68 1-514); UNC-75(1-114) RRM1 (Caenorhabditis elegans, UniProt G5EE68 1-114); UNC-75(121-213) RRM2 (Caenorhabditis elegans, UniProt G5EE68 121-213); UNC-75(417-514) RRM3 (Caenorhabditis elegans, UniProt G5EE68 417-514).
What all share (test): EMSA; EMSA as described previously (ref 55); buffer, salt, pH and temperature not given
Conditions in all cases: protein: recombinant; tags: FLAG; label: 32P
For orientation: In EMSA bound probe runs differently from free probe, usually more slowly.

The target in a further data set is T1, FOX-1 (Caenorhabditis elegans, UniProt Q10572 1-429).
T1 sequence: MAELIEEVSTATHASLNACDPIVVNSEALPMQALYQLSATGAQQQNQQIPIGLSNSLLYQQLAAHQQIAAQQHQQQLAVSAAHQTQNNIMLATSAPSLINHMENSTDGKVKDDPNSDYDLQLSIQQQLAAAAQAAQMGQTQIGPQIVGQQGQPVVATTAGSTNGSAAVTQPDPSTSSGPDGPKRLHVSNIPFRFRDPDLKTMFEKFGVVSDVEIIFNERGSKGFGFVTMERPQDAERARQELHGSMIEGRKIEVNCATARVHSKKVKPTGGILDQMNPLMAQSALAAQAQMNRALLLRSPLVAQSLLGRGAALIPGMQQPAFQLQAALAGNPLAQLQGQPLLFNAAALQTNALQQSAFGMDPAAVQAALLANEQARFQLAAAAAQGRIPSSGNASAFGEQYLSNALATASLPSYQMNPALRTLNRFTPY

In another data set the target is T2, ASD-1 (Caenorhabditis elegans, UniProt G5EEW7 1-404).
T2 sequence: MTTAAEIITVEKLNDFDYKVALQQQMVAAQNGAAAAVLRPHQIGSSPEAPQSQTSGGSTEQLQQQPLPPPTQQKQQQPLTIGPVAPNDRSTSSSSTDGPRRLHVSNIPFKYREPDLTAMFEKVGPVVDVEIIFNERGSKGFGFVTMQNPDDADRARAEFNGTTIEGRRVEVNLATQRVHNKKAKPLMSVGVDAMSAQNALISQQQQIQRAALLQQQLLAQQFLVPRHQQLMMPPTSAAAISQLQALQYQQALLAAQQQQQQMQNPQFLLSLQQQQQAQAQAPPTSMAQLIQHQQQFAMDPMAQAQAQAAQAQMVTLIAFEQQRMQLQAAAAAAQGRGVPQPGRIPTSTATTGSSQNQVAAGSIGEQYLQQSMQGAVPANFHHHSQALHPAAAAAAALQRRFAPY

B1: Probe 2-1-1 (also printed 2-2-1) (ssRNA)
RNA: GGGAGAUUAGCACGCACCCGCCUUCUACUGUCCCGUUACUUUUUGUUGUGUUGU
Regarding B1, the binding result in the data set with UNC-75(L431F) was “no binding”; with UNC-75, “binds”; in the data set with UNC-75(1-114) RRM1, “no binding”; with UNC-75(121-213) RRM2, “no binding”; with UNC-75(417-514) RRM3, “binds”.

B2: Probe 2-1-1d (ssRNA)
RNA: GGGAGAUUAGCACGCACCCGCCUUCUACUGUAAAAUUAAUUUUUGUUGUGUUGU
Regarding B2, the binding result with UNC-75 and with UNC-75(417-514) RRM3 was “binds” each time.

B3: Probe 2-1-1a (ssRNA)
RNA: GGGAGAUUAAAAAAAACCCGCCUUCUACUGUCCCGUUACUUUUUGUUGUGUUGU
In the case of B3, the binding result in the data set with UNC-75 and with UNC-75(417-514) RRM3 was “binds” each time.

B4: Probe 2-1-1c (ssRNA)
RNA: GGGAGAUUAGCACGCACCCGCCUUAUAAUAUCCCGUUACUUUUUGUUGUGUUGU
Consider B4, for which the binding result with UNC-75 and with UNC-75(417-514) RRM3 was “binds” in each case.

B5: Probe 2-1-1b (ssRNA)
RNA: GGGAGAUUAGCACGCAAAAAAAUUCUACUGUCCCGUUACUUUUUGUUGUGUUGU
With B5, the binding result in the data set with UNC-75 and with UNC-75(417-514) RRM3 was “binds” each time.

B6: Probe 2-1-1e (ssRNA)
RNA: GGGAGAUUAGCACGCACCCGCCUUCUACUGUCCCGUUACUUUUUAUUAUAUUAU
As to B6, the binding result with UNC-75 and with UNC-75(417-514) RRM3 was “no binding” in each case.
Consider GGGAGAGGUGAUGGGUAGUUUUUGCAUGAUUGU (ssRNA) [intron 7b WT probe], for which the binding result with FOX-1 and with ASD-1 was “binds” in each case.
